Legend:
[1] = target: T1, human OX40 on PG-Jurkat-hOX40-NF-kB cells (human, UniProt P43489 29-277); assay: cell-based or functional assay
T1 sequence (looked up): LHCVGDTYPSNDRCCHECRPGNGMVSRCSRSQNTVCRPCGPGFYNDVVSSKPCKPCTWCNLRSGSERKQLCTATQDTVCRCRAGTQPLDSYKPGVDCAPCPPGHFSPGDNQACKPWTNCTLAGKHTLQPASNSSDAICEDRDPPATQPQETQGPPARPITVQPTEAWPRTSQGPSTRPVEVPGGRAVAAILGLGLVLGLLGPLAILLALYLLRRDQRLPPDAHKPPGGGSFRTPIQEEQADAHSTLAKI

[2] = target: T1, human OX40 on PG-Jurkat-hOX40-NF-kB …; assay: flow cytometry competition against OX40L-mFc on PG-Jurkat-OX40-NF-kB cells; reference antibody KHK4083
[3] = target: T1, human OX40 on PG-Jurkat-hOX40-NF-kB …; assay: flow cytometry competition: antibody titrated against OX40L-mFc (1.5 ug/mL) on PG-Jurkat-OX40-NF-kB cells, anti-mFc APC detection

B1: antibody M-KF (antibody, human IgG1, kappa, V domains shown)
VH: QVQLVESGGGVVQPGESLRLSCAASGFTFSSYGMHWVRQAPGKGLEWVAVIWEDGSNQYYADSVKGRFTISRDNSKNTLYLQMNSLRAEDTAVYYCAKDNQDTSPDVGIDYWGQGTLVTVSS
VL: DIQMTQSPSSLSASVGDRVTITCRASQNISPFLNWYQQKPGKAPKLLIYAAVGLQSGVPSRFSGSGSGTDFTLTISSLQPEDFATYYCQQYTDYPLTFGGGTKVEIKR
notes: Expressed in CHO-BAT-KF cells (alpha-(1,6)-fucosyltransferase knocked out); also called anti-OX40 antibody
IC50 of blocking OX40L-mFc-induced NF-kB luciferase reporter signal (RLU) in PG-Jurkat-OX40-NF-kB cells [1]: 0.095 nM | fold lower IC50 than antibody KHK4083 in the NF-kB luciferase reporter assay [1]: 4.8 fold | fold lower IC50 than antibody KHK4083 [2]: 2.8 fold | IC50 [3]: 0.85 nM
